# Experimental data from patent US20220324977A1 (BEIJING SINOGENE BIOTECHNOLOGY, published 2022).
# Experiments:
# [1] = molecular target: T1, canine PD-1 protein amino acids 25-168 with His tag (canine, UniProt A0A090BAM7 25-168); test: ELISA, PD-1 His 100 ng/mL, clone supernatant
# T1 construct: Expressed in Expi293F cells; used as immunogen and as antigen in ELISA and Octet; also called PD-1 His
# [2] = molecular target: T1, canine PD-1 protein amino acids 25-168 …; test: Octet BLI, supernatant captured by anti-mouse IgG Fc, PD-1 His 20 nM
# Description: Octet BMIA was used to determine the affinity of the supernatant of the PD-1A clone culture to PD-1 His. Anti-mouse IgG Fc was added to each clone supernatant to capture competence factors.
# PD1-Fc [3] = molecular target: T2, PD1-Fc (canine, UniProt A0A090BAM7 25-168); test: Octet BLI competition, competitor PD-L1 Fc on AHC sensor, against PD1 Fc only
# T2 construct: also called Only Ag (PD1 Fc)
# Description: (§1) D-L1 Fc ([…]) was loaded on an AHC sensor for cross-linking assay. Epitope analysis was used to determine the binding of antibodies loaded on the sensor to recombinant antibodies preincubated with PD1-Fc. The binding (response) degrees observed were compared to that of antigen only under the same conditions. If the total response of an antibody was higher than that of antigen only, the antibody would be matched. If the response of an antibody was lower than 80% of that of antigen, the antibody would be blocked with each other.
# PD1-Fc [4] = molecular target: T2, PD1-Fc; test: Octet BLI competition, competitor PD-L1 Fc on AHC sensor, PD1 Fc 50 nM preincubated with supernatant 1/2
# Description: as §1
# T2 sequence (A0A090BAM7 entry or part of it limits assumed): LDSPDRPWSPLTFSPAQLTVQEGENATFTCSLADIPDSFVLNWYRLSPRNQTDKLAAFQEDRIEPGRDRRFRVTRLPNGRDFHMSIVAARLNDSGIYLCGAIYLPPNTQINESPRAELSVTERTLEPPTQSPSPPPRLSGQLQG
# T1 sequence (A0A090BAM7 entry or part of it limits assumed): as above
Binder,O.D. determined by ELISA [1],Kd [2] [nM],Response (nm) [2] [nm],koff [2] [s⁻¹],kon [2] [M⁻¹ s⁻¹],% response (PD1-Fc [3]) [%],Response (nm) (PD1-Fc [4])
"PD-1 A-M15 (antibody, mouse IgG1, V domains shown, Mouse IgG1 kappa, hybridoma supernatant; also called 11E10) VH: EVRLQQSGAELVKPGASVKLSCTASGFNIKDTYLHWLKERPEQGLEWIGRIDPAIGNTRYDPKFQVKATITADTSSNTAYLQLSSLTSEDSAVYYCARGFYGMDYWGQGTSVTVSS VL: QIVLTQSPAIMSASPGEKVTMTCSASSSVSYMFWYQQKPGSSPRLWIYDTSNLVSGVPARFSGSRSGTSYSLTISSMEAEDAATYYCQQYSGYPYTFGGGTKLEIK",2.34,10.4,0.068,0.000608,58500,-8.21,-0.005
"PD-1 A-M3 (antibody, mouse IgG1, V domains shown, Mouse IgG1 kappa, hybridoma supernatant; also called 4G01) VH: EVRLQQSGAELVKPGASVKLSCTASGFNIKDTYLHWLKERPEQGLEWIGRIDPAIGNTRYDPKFQVKATITADTSSNTAYLQLSSLTSEDSAVYYCARGFYGMDYWGQGTSVTVSS VL: QIVLTQSPAIMSASPGEKVTMTCSASSSVSYMFWYQQKPGSSPRLWIYDTSNLVSGVPARFSGSRSGTSYSLTISSMEAEDAATYYCQQYSGYPYTFGGGTKLEIK",2.87,< 0.001,0.041,< 1e-07,174000,-5,-0.002
"PD-1 A-M11 (antibody, V domains shown, Mouse IgG1 kappa, hybridoma supernatant; The VL is therefore uncertain; also called 9B04) VH: EVQLQQSGAEVVKPGASVKLSCTASGFNIKDTYMHWVKQRPEQGLEWIGRIDPAIGNPKYDPKFQGRATITADTSSNTAYLQLSSLTSEDTAVYYCASGFYAMDCWGQGTSVTVSS VL: QIVLTQSPAIMSASPGEKVTMTCSASSSITYMFWYQQKPGSSPRLWIYDTSNLVSGVPARFSGSKSGTSYSLTITSMEAEDAATYYCQQYSGYPSTFGSGTKLEIK",2.66,0.903,0.049,0.000312,346000,-16,-0.008

# Further lines, results first:
O.D. determined by ELISA [1],Kd [2] [nM],Response (nm) [2] [nm],koff [2] [s⁻¹],kon [2] [M⁻¹ s⁻¹],% response (PD1-Fc [3]) [%],Response (nm) (PD1-Fc [4]),Binder
2.58,0.537,0.061,0.000159,296000,-0.47,0,"PD-1 A-M23 (antibody, mouse IgG1, V domains shown, Mouse IgG1 kappa, hybridoma supernatant; also called 18A08) VH: EVRLQQSGAELVKPGASVKLSCTASGFNIKDTYLHWLKERPEQGLEWIGRIDPAIGNTRYDPKFQVKATITADTSSNTAYLQLSSLTSEDSAVYYCARGFYGMDYWGQGTSVTVSS VL: QIVLTQSPAIMSASPGEKVTMTCSASSSVSYMFWYQQKPGSSPRLWIYDTSNLVSGVPARFSGSRSGTSYSLTISSMEAEDAATYYCQQYSGYPYTFGGGTKLEIK"
2.83,0.0306,0.044,6.96e-06,227000,12,0.006,"PD-1 A-M10 (antibody, mouse IgG1, V domains shown, Mouse IgG1 kappa, hybridoma supernatant; also called 8H01) VH: EVRLQQSGAELVKPGASVKLSCTASGFNIKDTYLHWLKERPEQGLEWIGRIDPAIGNTRYDPKFQVKATITADTSSNTAYLQLSSLTSEDSAVYYCARGFYGMDYWGQGTSVTVSS VL: QIVLTQSPAIMSASPGEKVTMTCSASSSVSYMFWYQQKPGSSPRLWIYDTSNLVSGVPARFSGSRSGTSYSLTISSMEAEDAATYYCQQYSGYPYTFGGGTKLEIK"
